Experimental data from patent US20140212427A1 (University of Pennsylvania, published 2014).
Residue numbers refer to the chain shown, from its start. Values belong to the binder of their own block, whether it stands above or below them.

Key:
[1] = biological target: human properdin (human, UniProt P27918 28-469); test: cell-based or functional assay
[2] = biological target: T1, full-length human properdin with the double mutations C62A and C78A (TSR6) (human, UniProt P27918 28-469); test: ELISA with homogenates of transfected CHO cells (FIG. 8B)
T1 construct: Whether this mutant carries a 6×His tag is not clear; Homogenate of transfected CHO cells; also called C62A and C78A double mutant
T1 sequence (P27918 28-469 C439A/C455A limits assumed): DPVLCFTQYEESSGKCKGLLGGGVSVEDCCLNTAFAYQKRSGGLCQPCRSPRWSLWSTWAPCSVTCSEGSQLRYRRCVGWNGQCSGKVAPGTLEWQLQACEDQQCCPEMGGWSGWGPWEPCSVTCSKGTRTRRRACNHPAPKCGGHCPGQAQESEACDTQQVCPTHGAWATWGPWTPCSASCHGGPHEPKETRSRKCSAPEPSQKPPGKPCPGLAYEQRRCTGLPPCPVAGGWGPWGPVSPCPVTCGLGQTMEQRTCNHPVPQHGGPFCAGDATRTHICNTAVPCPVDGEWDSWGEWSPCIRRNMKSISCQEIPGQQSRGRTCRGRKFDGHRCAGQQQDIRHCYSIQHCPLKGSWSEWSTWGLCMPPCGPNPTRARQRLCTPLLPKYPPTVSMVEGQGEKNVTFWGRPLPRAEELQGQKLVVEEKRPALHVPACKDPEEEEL

[3] = biological target: T2, human properdin deletion mutant dTSR5+6 (human, UniProt P27918 28-313); test: ELISA with CHO cell lysates of properdin deletion mutants (FIG. 6)
T2 construct: Human properdin with TSR5 and TSR6 deleted; CHO cell lysate; also called TSR0-4; TSR5+6 deletion mutant
T2 sequence (P27918 other isoform, or with tags, fused parts or gaps mutant limits assumed): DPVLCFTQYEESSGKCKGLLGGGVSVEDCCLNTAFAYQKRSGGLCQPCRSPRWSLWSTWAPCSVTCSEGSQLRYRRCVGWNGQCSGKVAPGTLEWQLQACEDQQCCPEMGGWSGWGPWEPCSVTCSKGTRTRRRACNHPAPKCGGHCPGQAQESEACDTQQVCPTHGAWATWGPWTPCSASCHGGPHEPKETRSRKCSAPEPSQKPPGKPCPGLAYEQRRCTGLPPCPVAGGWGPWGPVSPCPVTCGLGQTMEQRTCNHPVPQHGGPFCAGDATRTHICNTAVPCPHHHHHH
Protocol: (§1) However, because dTSR5 has undergone proteolytic degradation leading to possible TSR6 removal (FIG. 5), it is likely that the epitope for mAb 25 is located in TSR6. HuP refers to full length human properdin transfection which is used as a positive control. Con refers to untransfected CHO cell lysate which is used as a negative control for lack of binding. All mutant proteins contained a 6×His tag at the C-terminus.
(§2) (see FIG. 6). ELISA plates were coated with 50 μl of 2 μg/ml of the concerned mAb overnight at 4° C. The plates were washed 3× with PBS-T and then 25 μg (in 50 μl PBS containing 1% BSA) CHO cell lysate proteins were added to the wells and the plates were incubated for 1 hour at room temperature. The plates were washed 3× with PBS-T and then captured protein was detected by biotinylated goat anti-human properdin antibody and HRP-avidin system.

[4] = biological target: T3, human properdin deletion mutant dTSR6 (human, UniProt P27918 28-377); test: as above
T3 construct: CHO cell lysate; also called TSR0-5
T3 sequence (P27918 other isoform, or with tags, fused parts or gaps mutant limits assumed): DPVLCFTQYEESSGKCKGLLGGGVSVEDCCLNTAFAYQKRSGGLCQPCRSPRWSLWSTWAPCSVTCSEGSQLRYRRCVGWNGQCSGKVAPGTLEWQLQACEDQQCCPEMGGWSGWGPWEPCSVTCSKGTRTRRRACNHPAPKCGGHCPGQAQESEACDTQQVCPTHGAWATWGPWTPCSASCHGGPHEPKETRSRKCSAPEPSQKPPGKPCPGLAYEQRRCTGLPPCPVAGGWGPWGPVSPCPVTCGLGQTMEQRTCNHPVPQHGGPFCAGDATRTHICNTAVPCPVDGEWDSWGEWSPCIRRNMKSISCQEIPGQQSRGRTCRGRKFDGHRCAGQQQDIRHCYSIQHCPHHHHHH
Protocol: as §1, §2

[5] = biological target: T4, human properdin mutant TSR0-5+¾ TSR6 (human, UniProt P27918 28-446); test: sandwich ELISA with CHO cell lysates (FIG. 8A)
T4 construct: Expressed in CHO cells, tested as lysate; expression confirmed by Western blot
T4 sequence (P27918 other isoform, or with tags, fused parts or gaps mutant limits assumed): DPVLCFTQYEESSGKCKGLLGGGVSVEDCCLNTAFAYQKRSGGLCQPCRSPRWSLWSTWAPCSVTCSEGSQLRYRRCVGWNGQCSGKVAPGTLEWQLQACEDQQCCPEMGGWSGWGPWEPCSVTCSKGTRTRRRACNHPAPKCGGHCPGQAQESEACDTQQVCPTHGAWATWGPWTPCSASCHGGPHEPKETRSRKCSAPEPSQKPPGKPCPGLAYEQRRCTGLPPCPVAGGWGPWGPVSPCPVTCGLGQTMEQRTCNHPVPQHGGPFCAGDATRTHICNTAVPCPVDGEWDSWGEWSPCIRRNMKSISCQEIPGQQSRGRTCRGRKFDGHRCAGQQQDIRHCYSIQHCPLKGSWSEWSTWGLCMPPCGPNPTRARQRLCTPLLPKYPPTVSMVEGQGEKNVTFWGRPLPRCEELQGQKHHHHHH
Protocol: as §2
Three human properdin mutants comprising TSR0-5+¼ TSR6, TSR0-5+½ TSR6 or TSR0-5+¾ TSR6 were generated by conventional PCR. They were cloned into pCAGGS and expressed in CHO cells as described in Example 5. Protein expression was confirmed by Western analysis using goat anti-human properdin antibody. The blot was stripped and reprobed with a mouse anti-His tag antibody (Qiagen) to confirm that the C-terminal His Tag is present (no C-terminal proteolysis). […] These are cysteine 62 (C62) and cysteine 78 (C78) of TSR6.

[6] = biological target: T5, human properdin mutant TSR0-4+½ TSR5 (human, UniProt P27918 28-345); test: sandwich ELISA with CHO cell lysates (FIG. 7)
T5 construct: Expressed in CHO cells, tested as lysate; expression confirmed by Western blot
T5 sequence (P27918 other isoform, or with tags, fused parts or gaps mutant limits assumed): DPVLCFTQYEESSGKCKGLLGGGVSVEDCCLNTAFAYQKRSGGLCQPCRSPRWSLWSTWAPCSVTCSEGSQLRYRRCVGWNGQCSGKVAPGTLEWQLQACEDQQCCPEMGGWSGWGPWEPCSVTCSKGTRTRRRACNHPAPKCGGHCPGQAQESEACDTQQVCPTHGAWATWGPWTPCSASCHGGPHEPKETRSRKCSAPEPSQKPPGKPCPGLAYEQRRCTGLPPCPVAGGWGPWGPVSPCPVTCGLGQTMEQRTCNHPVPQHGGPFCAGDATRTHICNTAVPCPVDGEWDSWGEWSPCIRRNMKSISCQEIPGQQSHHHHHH
Protocol: as §2
Three human properdin mutants comprising TSR0-4+¼ TSR5, TSR0-4+½ TSR5 or TSR0-4+¾ TSR5 were generated by conventional PCR. They were cloned into pCAGGS and expressed in CHO cells as described in Example 5. Protein expression was confirmed by Western analysis using goat anti-human properdin antibody. The blot was stripped and reprobed with a mouse anti-His tag antibody (Qiagen) to confirm that the C-terminal His Tag is present (no C-terminal proteolysis).

human properdin, sequence (P27918 28-469): as the sequence (P27918 28-469 C439A/C455A limits assumed) above, with A412C, A428C counted along it

B1: humanized 19.1 mAb with heavy chain variable region humanized 19.1 VH-4-59-01 (antibody, human IgG4 S228P, kappa, V domains shown)
VH: QVQLQESGPGLVKPSETLSLTCTVSGFSLTTYGVHWIRQPPGKGLEWIGVIWSGGDTDYNASFISRVTISVDTSKNQFSLKLSSVTAADTAVYYCARNKDYYTNYDFTMDYWGQGTTVTVSS
VL: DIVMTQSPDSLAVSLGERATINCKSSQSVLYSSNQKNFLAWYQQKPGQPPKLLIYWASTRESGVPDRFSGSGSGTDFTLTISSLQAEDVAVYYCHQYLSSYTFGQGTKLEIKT
acidified autologous serum lysis of PNH patient RBCs (Ham's test) [1]: 20 µg/ml
concentration sufficient to inhibit LPS-induced human AP complement activation in 50% NHS (C3 deposition) [1]: 10 µg/mL

B5: mAb 22.1 (antibody, V domains shown)
VH: QVQLKQSGPGLVQPSQSLSITCTVSGFSLTSYGVHWVRQSPGKGLEWLGVIWSGGSTDYNAAFISRLSISKDTSKSQVFFKMNSLQPDDTAIYYCARNKDFYSNYDYTMDYWGQGTSVTVSS
VL: NIMMTQSPSFLAVSAGEKVTLSCKSSQSVLYSSNQKNFLAWYQQKPGQSPKLLIYWASTRESGVPDRFTGSGSGTDFTLTISSVQAEDLAVYYCHQYLSSYTFGGGTKLEIK
LPS-induced AP complement activation in 50% normal human serum (C3 deposition, OD450) [1]: 5 µg/mL
lysis of human RBCs by 50% human serum with fH 19-20 and anti-DAF mAb [1]: 5 µg/mL

B6: chimeric 19.1 mAb (antibody, human IgG4 S228P, kappa, V domains shown)
VH: QVQLKQSGPGLVQPSQSLSISCTVSGFSLTTYGVHWVRQSPGKGLEWLGVIWSGGDTDYNASFISRLRINKDTSKSQVFFKMNSLQADDTAYYCARNKDYYTNYDFTMDYWGQGTSVTVSS
VL: NIMMTQSPSSLAVSAGEKVTMSCKSSQSVLYSSNQKNFLAWYQQKPGQSPKLLIYWASTRESGVPDRFTGSGSGTDFILTINSVQVEDQAVYYCHQYLSSYTFGGGTKLEIKT
concentration sufficient to inhibit LPS-induced human AP complement activation in 50% NHS (C3 deposition) [1]: 10 µg/mL

The remaining lines, values ahead:

binding result [2]: no binding
binding result [3]: no binding
binding result [4]: no binding
LPS-induced AP complement activation in 50% normal human serum (C3 deposition, OD450) [1]: 5 µg/mL
acidified autologous serum lysis of PNH patient RBCs (Ham's test) [1]: ≥ 8 µg/ml
lysis of human RBCs by 50% human serum with fH 19-20 and anti-DAF mAb [1]: 5 µg/mL
binding result [5]: no binding
B2: mAb 25 (antibody, V domains shown)
VH: QVQLLQSGAEVMKPGASVTLSCKAIGYTFIDYWIEWIKQRPGHGLEWIGEIFPGSGTINHNEKFKDKASFSAHSSSNTAYMQLSRLTSEDSAIYYCAREGLDYWGQGTTLTVSS
VL: QIVLTQSPAIMSASPGERVTMTCSASSSVSYIYWYQQKSGTSPKRWIFDTSTLASGVPTRFSGSGSGTSYSLTISSMETEDAATYYCQQWSRNPFTFGSGTKLEIK
notes: Mouse hybridoma monoclonal antibody; also called anti-properdin mAb 25

concentration sufficient to inhibit LPS-induced human AP complement activation in 50% NHS (C3 deposition) [1]: 10 µg/mL
B3: humanized 19.1 mAb with heavy chain variable region humanized 19.1 VH-3-66-04 (antibody, human IgG4 S228P, kappa, V domains shown)
VH: EVQLVESGGGLVQPGGSLRLSCAASGFSLTTYGVHWVRQAPGKGLEWVSVIWSGGDTDYNASFISRFTISRDNSKNTLYLQMNSLRAEDTAVYYCARNKDYYTNYDFTMDYWGQGTTVTVSS
VL: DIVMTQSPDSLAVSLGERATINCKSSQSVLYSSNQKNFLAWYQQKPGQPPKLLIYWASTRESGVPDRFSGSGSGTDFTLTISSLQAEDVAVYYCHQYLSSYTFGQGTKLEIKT

binding result [6]: no binding
binding result [3]: no binding
LPS-induced AP complement activation in 50% normal human serum (C3 deposition, OD450) [1]: 5 µg/mL
acidified autologous serum lysis of PNH patient RBCs (Ham's test) [1]: ≥ 8 µg/ml
concentration sufficient to inhibit LPS-induced human AP complement activation in 50% NHS (C3 deposition) [1]: 5 µg/mL
lysis of human RBCs by 50% human serum with fH 19-20 and anti-DAF mAb [1]: 5 µg/mL
B4: mAb 19.1 (antibody, V domains shown)
VH: B6 VH
VL: B5 VL with F10S, L21M, T78I, S82N, A86V, L89Q
notes: Mouse hybridoma monoclonal antibody from properdin knockout mice immunised with human properdin; kappa light chain
